Seven molecules from patent US20140193378A1 (UNIVERSITY OF MIAMI, published 2014) can be followed below.

For experiment [1], the target named is T1, human GHRH receptor (human pituitary membrane homogenates) (human) (UniProt Q02643).
T1 sequence (looked up): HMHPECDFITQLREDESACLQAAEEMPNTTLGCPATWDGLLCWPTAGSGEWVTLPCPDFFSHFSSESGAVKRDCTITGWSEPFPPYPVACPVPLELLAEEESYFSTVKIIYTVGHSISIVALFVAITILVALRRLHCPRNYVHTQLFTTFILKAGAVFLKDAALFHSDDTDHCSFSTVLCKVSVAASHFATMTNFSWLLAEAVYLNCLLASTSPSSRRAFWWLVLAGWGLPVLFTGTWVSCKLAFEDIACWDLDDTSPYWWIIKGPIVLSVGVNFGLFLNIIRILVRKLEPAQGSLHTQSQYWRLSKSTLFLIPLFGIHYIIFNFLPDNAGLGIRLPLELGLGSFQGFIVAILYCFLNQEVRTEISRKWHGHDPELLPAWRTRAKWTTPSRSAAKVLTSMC
Put plainly: radioligand competition vs 125I-JV-1-42 (0.2 nM), human pituitary membranes. Background: In a radioligand displacement assay an active substance lowers the binding of a labelled ligand.

Experiment [2] has as its target T1, human GHRH receptor (human pituitary membrane homogenates) (human). Described as above. This is another data set of the same source.
For experiment [3] the target is unchanged. The experiment in a line: radioligand competition vs [His1,125I-Tyr10,Nle27]hGHRH(1-32)NH2 (0.2 nM), human pituitary membranes.
Experiment [4] has as its target T2, human GHRH receptor (human pituitary membrane homogenates) (human, UniProt Q02643 23-423).
T2 construct: whole, on cells; Native receptor in human pituitary membrane homogenates, not on intact cells; also called hGHRH receptor
T2 sequence (looked up): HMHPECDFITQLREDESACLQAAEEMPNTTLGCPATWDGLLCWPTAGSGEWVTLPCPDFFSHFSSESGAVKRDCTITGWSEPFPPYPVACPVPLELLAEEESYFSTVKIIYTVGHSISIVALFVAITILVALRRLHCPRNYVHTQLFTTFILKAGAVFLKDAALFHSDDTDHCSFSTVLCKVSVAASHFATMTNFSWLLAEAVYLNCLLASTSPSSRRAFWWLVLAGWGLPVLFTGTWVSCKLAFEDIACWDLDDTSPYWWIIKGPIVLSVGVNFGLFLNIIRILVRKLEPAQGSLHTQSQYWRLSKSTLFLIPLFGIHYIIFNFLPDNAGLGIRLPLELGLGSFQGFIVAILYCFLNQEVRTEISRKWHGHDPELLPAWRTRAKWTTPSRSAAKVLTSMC
The experiment in a line: radioligand competition vs 125I-JV-1-42 (0.2 nM), human pituitary membranes. An excerpt: (§1) Normal human pituitaries were purchased from the National Hormone and Peptide Program (A. F. Parlow, Los Angeles, County Harbor-UCLA Medical Center, Torrance, Calif.).

The target of experiment [5] is T2, human GHRH receptor (human pituitary …). The description is as above.
From the text: as §1
This is another data set of the same source.

Where two headings read alike, the source gives them in different places. Non-standard residues stand in square brackets, D forms with d. *: point of attachment. Phe(F5) = N[C@@H](Cc1c(F)c(F)c(F)c(F)c1F)C(=O)O; Desaminotyrosyl = O=C(CCc1ccc(O)cc1)*; Agmatine = N=C(N)NCCCCN*; Nle = CCCC[C@H](N)C(=O)O; Orn = NCCC[C@H](N)C(=O)O; Abu = CC[C@H](N)C(=O)O; Ava = NCCCCC(=O)O; GABA = NCCCC(=O)O

The molecule “P-20356 [N-Me-Tyr^1, Gln^8, Orn^12, Abu^15, Orn^21, Nle^27, Asp^28, Agm^29]hGHRH(1-29)NH2 (peptide)” showed a Relative affinity (Binding potency) vs JI-38 in experiment [1] of 16.1 fold. In experiment [2], the Relative affinity (Binding potency) vs GHRH was 406 fold and the Relative affinity (Binding potency) vs JI-38 was 171 fold.

In experiment [3], JI-36 (peptide) returned a Relative affinity (Binding potency) vs GHRH of 3.25 fold.

With JI-34 (peptide), the Relative affinity (Binding potency) vs GHRH in experiment [3] is 4.32 fold.

In experiment [3], JI-38 (peptide) returned a Relative affinity (Binding potency) vs GHRH of 3.03 fold and a Relative affinity (Binding potency) vs JI-38 of 1 fold. In experiment [2], this molecule gave a Relative affinity (Binding potency) vs GHRH of 2.4 fold and a Relative affinity (Binding potency) vs JI-38 of 1 fold.

B1: P-20350 [Dat^1, D-Ala^2, Gln^8, Orn^12, Abu^15, Orn^21, Nle^27, Asp^28, Agm^29]hGHRH(1-29)NH2 (peptide)
peptide: [Desaminotyrosyl][dA]DAIFTQSYR[Orn]VL[Abu]QLSAR[Orn]LLQDI[Nle]D[Agmatine]
SMILES: CCCC[C@H](NC(=O)[C@@H](NC(=O)[C@H](CC(=O)O)NC(=O)[C@H](CCC(N)=O)NC(=O)[C@H](CC(C)C)NC(=O)[C@H](CC(C)C)NC(=O)[C@H](CCCN)NC(=O)[C@H](CCCNC(=N)N)NC(=O)[C@H](C)NC(=O)[C@H](CO)NC(=O)[C@H](CC(C)C)NC(=O)[C@H](CCC(N)=O)NC(=O)[C@H](CC)NC(=O)[C@H](CC(C)C)NC(=O)[C@@H](NC(=O)[C@H](CCCN)NC(=O)[C@H](CCCNC(=N)N)NC(=O)[C@H](Cc1ccc(O)cc1)NC(=O)[C@H](CO)NC(=O)[C@H](CCC(N)=O)NC(=O)[C@@H](NC(=O)[C@H](Cc1ccccc1)NC(=O)[C@@H](NC(=O)[C@H](C)NC(=O)[C@H](CC(=O)O)NC(=O)[C@@H](C)NC(=O)CCc1ccc(O)cc1)[C@@H](C)CC)[C@@H](C)O)C(C)C)[C@@H](C)CC)C(=O)N[C@@H](CC(=O)O)C(=O)NCCCCNC(=N)N
notes: also called Peptide 20350
As to B1, in experiment [4], the “Relative affinity (Binding potency) vs GHRH” value worked out at 102 fold and the “Relative affinity (Binding potency) vs JI-38” value (“Relative affinity … vs JI-38” below) turned out to be 42.7 fold. The “Relative affinity … vs JI-38” value in experiment [5] stood at 8.37 fold.

B2: P-22327 [Dat^1, Gln^8, Orn^12, Abu^15, Orn^21, Nle^27, Asp^28, Apa^30]hGHRH(1-30)NH2 (peptide, from a related filing)
peptide: [Desaminotyrosyl]ADAIFTQSYR[Orn]VL[Abu]QLSAR[Orn]LLQDI[Nle]DR[Ava]-NH2
SMILES: CCCC[C@H](NC(=O)[C@@H](NC(=O)[C@H](CC(=O)O)NC(=O)[C@H](CCC(N)=O)NC(=O)[C@H](CC(C)C)NC(=O)[C@H](CC(C)C)NC(=O)[C@H](CCCN)NC(=O)[C@H](CCCNC(=N)N)NC(=O)[C@H](C)NC(=O)[C@H](CO)NC(=O)[C@H](CC(C)C)NC(=O)[C@H](CCC(N)=O)NC(=O)[C@H](CC)NC(=O)[C@H](CC(C)C)NC(=O)[C@@H](NC(=O)[C@H](CCCN)NC(=O)[C@H](CCCNC(=N)N)NC(=O)[C@H](Cc1ccc(O)cc1)NC(=O)[C@H](CO)NC(=O)[C@H](CCC(N)=O)NC(=O)[C@@H](NC(=O)[C@H](Cc1ccccc1)NC(=O)[C@@H](NC(=O)[C@H](C)NC(=O)[C@H](CC(=O)O)NC(=O)[C@H](C)NC(=O)CCc1ccc(O)cc1)[C@@H](C)CC)[C@@H](C)O)C(C)C)[C@@H](C)CC)C(=O)N[C@@H](CC(=O)O)C(=O)N[C@@H](CCCNC(=N)N)C(=O)NCCCCC(N)=O
B2 had a Relative affinity (Binding potency) vs JI-38 in experiment [1] of 2.18 fold.

B3: P-25502 [Dat^1, D-Ala^2, Fpa5^6, Orn^12, Abu^15, Orn^21, Nle^27, Gab^30]hGHRH(1-30)NH2 (peptide)
peptide: [Desaminotyrosyl][dA]DAI[Phe(F5)]TNSYR[Orn]VL[Abu]QLSAR[Orn]LLQDI[Nle]SR[GABA]-NH2
SMILES: CCCC[C@H](NC(=O)[C@@H](NC(=O)[C@H](CC(=O)O)NC(=O)[C@H](CCC(N)=O)NC(=O)[C@H](CC(C)C)NC(=O)[C@H](CC(C)C)NC(=O)[C@H](CCCN)NC(=O)[C@H](CCCNC(=N)N)NC(=O)[C@H](C)NC(=O)[C@H](CO)NC(=O)[C@H](CC(C)C)NC(=O)[C@H](CCC(N)=O)NC(=O)[C@H](CC)NC(=O)[C@H](CC(C)C)NC(=O)[C@@H](NC(=O)[C@H](CCCN)NC(=O)[C@H](CCCNC(=N)N)NC(=O)[C@H](Cc1ccc(O)cc1)NC(=O)[C@H](CO)NC(=O)[C@H](CC(N)=O)NC(=O)[C@@H](NC(=O)[C@H](Cc1c(F)c(F)c(F)c(F)c1F)NC(=O)[C@@H](NC(=O)[C@H](C)NC(=O)[C@H](CC(=O)O)NC(=O)[C@@H](C)NC(=O)CCc1ccc(O)cc1)[C@@H](C)CC)[C@@H](C)O)C(C)C)[C@@H](C)CC)C(=O)N[C@@H](CO)C(=O)N[C@@H](CCCNC(=N)N)C(=O)NCCCC(N)=O
notes: also called Peptide 25502; MR-502
Regarding B3, in experiment [4], the “Relative affinity (Binding potency) vs GHRH” value is 58 fold and the “Relative affinity … vs JI-38” value came to 24.4 fold. For the same molecule, in experiment [5], the “Relative affinity … vs JI-38” value was 13.2 fold.
